Test results taken from article doi:10.1101/2025.02.24.639257.
Where two headings read alike, the source gives them in different places.

B1: human TTLL11 (tubulin tyrosine ligase-like 11), full length (enzyme)
chain: MRRGSSESELAARWEAEAVAAAKAAAKAEAEATAETVAEQVRVDAGAAGEPECKAGEEQPKVLAPAPAQPSAAEEGNTQVLQRPPPTLPPSKPKPVQGLCPHGKPRDKGRSCKRSSGHGSGENGSQRPVTVDSSKARTSLDALKISIRQLKWKEFPFGRRLPCDIYWHGVSFHDNDIFSGQVNKFPGMTEMVRKITLSRAVRTMQNLFPEEYNFYPRSWILPDEFQLFVAQVQMVKDDDPSWKPTFIVKPDGGCQGDGIYLIKDPSDIRLAGTLQSRPAVVQEYICKPLLIDKLKFDIRLYVLLKSLDPLEIYIAKDGLSRFCTEPYQEPTPKNLHRIFMHLTNYSLNIHSGNFIHSDSASTGSKRTFSSILCRLSSKGVDIKKVWSDIISVVIKTVIALTPELKVFYQSDIPTGRPGPTCFQILGFDILLMKNLKPILLEVNANPSMRIEHEHELSPGVFENVPSLVDEEVKVAVIRDTLRLMDPLKKKRENQSQQLEKPFAGKEDALDGELTSAPDCNANPEAHLPSICLKQVFPKYAKQFNYLRLVDRMANLFIRFLGIKGTMKLGPTGFRTFIRSCKLSSSSLSMAAVDILYIDITRRWNSMTLDQRDSGMCLQAFVEAFFFLAQRKFKMLPLHEQVASLIDLCEYHLSLLDEKRLVCGRGVPSGGRPPHRGPPQEPSPSAQPAGDNPPPRTSCANKLSHPRHTLS
modifications: Janelia 549-HALO probe on the HALO tag (in the TIRF assay)

Tests used:
Assay in all cases: TIRF microscopy binding assay
[1] = biological target: porcine double-stabilized microtubules (dsMTs) (porcine) (UniProt P02550)
[2] = biological target: porcine double-stabilized microtubules (dsMTs) (porcine) (UniProt P02550); remark: listed apart in the source
[3] = biological target: AspN-treated double-stabilized microtubules (β-tubulin C-tail removed) (porcine) (UniProt P02550)

Molecule	percent reduction of the fluorescence signal (against full-length TTLL11) [1] [%]	percent reduction of the fluorescence signal (against full-length TTLL11) [2] [%]	percent lower fluorescence signal than on intact MTs [3] [%]
human TTLL11 I594W mutant (from UniProt Q8NHH1 1-710) (enzyme)	95	80	
human TTLL11 R601E mutant (from UniProt Q8NHH1 1-710) (enzyme)		60	
B1			50
